Test results published in paper PMC5760527 (2018).

Target: Cx43 EL1 peptide extracellular loop 1 (EL1) (Mus musculus, UniProt P23242)
Experiment: SPR

Sequence of Cx43 EL1 peptide extracellular loop 1 (EL1) (P23242 45-76): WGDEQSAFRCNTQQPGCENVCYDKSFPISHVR

B1: P4 peptide (Cx43 mimetic) (peptide)
chain: QPGCEN
Kd: 20 µM
